For one substance, KM (µM), VMAX (µM/min) and VMAX/KM (1/min) results are on record in US20090209433.

In the data set the target is VDAC from Yeast (voltage dependent anion selective channel), purified (UniProt P04840).

For “bovine cytochrome c oxidase holoenzyme (crystal grade)”, the KM (µM) at VDAC 50 nM is 28 µM, the KM (µM) at VDAC 100 nM was 44 µM, the KM (µM) at VDAC 200 nM was 59 µM and the VMAX (µM/min) at VDAC 50 nM turned out to be 132 µM/min. Also, the VMAX (µM/min) at VDAC 100 nM was determined as 199 µM/min, the VMAX (µM/min) at VDAC 200 nM worked out at 224 µM/min, the VMAX/KM (1/min) at VDAC 50 nM was 4.7 min⁻¹ and the VMAX/KM (1/min) at VDAC 100 nM worked out at 4.5 min⁻¹. The same substance yielded a VMAX/KM (1/min) at VDAC 200 nM of 3.8 min⁻¹.
